# Results as given in patent US20250304650A1.
# Values joined by “and” are separate entries in the source; they are usually repeats but may differ in a detail not shown here. Equal entries are not always repeated.
# What was measured:
# [1] = target: feline FcRn (IgG receptor FcRn large subunit p51 with feline beta-2-microglobulin) (feline); test: SPR Biacore 8K, Fc captured by SASA tag on BSA, pH 6.0
# [2] = target: feline FcRn (FCN-F82W3, Acrobiosystems) (feline); test: SPR Carterra, IgG coupled, pH 6.0
# [3] = target: feline FcRn (FCN-F82W3, Acrobiosystems) (feline); test: SPR Carterra, IgG coupled, pH 7.4
Binder,Kd [1],koff [1],kon [1],Kd [2],koff [2],kon [2],Kd [3],koff [3],kon [3]
"feline IgG1a Fc variant S434F (CH2-CH3) with SASA tag (Fc fusion, part only; not given: SASA tag, not shown: another chain or arm of the molecule; small tags and cut ends) Fc: PPEMLGGPSIFIFPPKPKDTLSISRTPEVTCLVVDLGPDDSDVQITWFVDNTQVYTAKTSPREEQFNSTYRVVSVLPILHQDWLKGKEFKCKVNSKSLPSPIERTISKAKGQPHEPQVYVLPPAQEELSRNKVSVTCLIKSFHPPDIAVEWEITGQPEPENNYRTTPPQLDSDGTYFVYSKLSVDRSHWQRGNTYTCSVSHEALHFHHTQKSLTQSPGK",41.7 nM and 43.3 nM,0.0158 s⁻¹ and 0.0161 s⁻¹,378000 M⁻¹ s⁻¹ and 371000 M⁻¹ s⁻¹,–,–,–,–,–,–
"wild-type feline IgG1a Fc (CH2 and CH3 domains) with SASA tag (Fc fusion, part only; not given: SASA tag, not shown: another chain or arm of the molecule; small tags and cut ends) Fc: PPEMLGGPSIFIFPPKPKDTLSISRTPEVTCLVVDLGPDDSDVQITWFVDNTQVYTAKTSPREEQFNSTYRVVSVLPILHQDWLKGKEFKCKVNSKSLPSPIERTISKAKGQPHEPQVYVLPPAQEELSRNKVSVTCLIKSFHPPDIAVEWEITGQPEPENNYRTTPPQLDSDGTYFVYSKLSVDRSHWQRGNTYTCSVSHEALHSHHTQKSLTQSPGK",1190 nM and 1640 nM,0.374 s⁻¹ and 0.195 s⁻¹,314000 M⁻¹ s⁻¹ and 119000 M⁻¹ s⁻¹,–,–,–,–,–,–
"anti-NGF feline IgG1a, Fc variant S252Y, Q311V (antibody, part only; not given: anti-NGF variable domains, light chain, not shown: another chain or arm of the molecule; small tags and cut ends) Fc: PPEMLGGPSIFIFPPKPKDTLYISRTPEVTCLVVDLGPDDSDVQITWFVDNTQVYTAKTSPREEQFNSTYRVVSVLPILHVDWLKGKEFKCKVNSKSLPSPIERTISKAKGQPHEPQVYVLPPAQEELSRNKVSVTCLIKSFHPPDIAVEWEITGQPEPENNYRTTPPQLDSDGTYFVYSKLSVDRSHWQRGNTYTCSVSHEALHSHHTQKSLTQSPGK",–,–,–,3.8 nM,0.00405 s⁻¹,1.06e+06 M⁻¹ s⁻¹,306 nM,0.0528 s⁻¹,173000 M⁻¹ s⁻¹
"anti-NGF feline IgG1a, Fc variant S252Y, Q311R (antibody, part only; not given: anti-NGF variable domains, not shown: another chain or arm of the molecule; small tags and cut ends) Fc: PPEMLGGPSIFIFPPKPKDTLYISRTPEVTCLVVDLGPDDSDVQITWFVDNTQVYTAKTSPREEQFNSTYRVVSVLPILHRDWLKGKEFKCKVNSKSLPSPIERTISKAKGQPHEPQVYVLPPAQEELSRNKVSVTCLIKSFHPPDIAVEWEITGQPEPENNYRTTPPQLDSDGTYFVYSKLSVDRSHWQRGNTYTCSVSHEALHSHHTQKSLTQSPGK",–,–,–,6.9 nM,0.0064 s⁻¹,926000 M⁻¹ s⁻¹,–,–,–

# Now from value to binder:
Kd [1],koff [1],kon [1],Kd [2],koff [2],kon [2],Kd [3],koff [3],kon [3],Binder
316 nM and 444 nM,0.0761 s⁻¹ and 0.0888 s⁻¹,241000 M⁻¹ s⁻¹ and 200000 M⁻¹ s⁻¹,–,–,–,–,–,–,"feline IgG1a Fc variant S434H (CH2-CH3) with SASA tag (Fc fusion, part only; not given: SASA tag, not shown: another chain or arm of the molecule; small tags and cut ends) Fc: PPEMLGGPSIFIFPPKPKDTLSISRTPEVTCLVVDLGPDDSDVQITWFVDNTQVYTAKTSPREEQFNSTYRVVSVLPILHQDWLKGKEFKCKVNSKSLPSPIERTISKAKGQPHEPQVYVLPPAQEELSRNKVSVTCLIKSFHPPDIAVEWEITGQPEPENNYRTTPPQLDSDGTYFVYSKLSVDRSHWQRGNTYTCSVSHEALHHHHTQKSLTQSPGK"
–,–,–,3 nM,0.0044 s⁻¹,1.48e+06 M⁻¹ s⁻¹,185 nM,0.118 s⁻¹,636000 M⁻¹ s⁻¹,"anti-NGF feline IgG1a, Fc variant S434Y, S426L (antibody, part only; not given: anti-NGF variable domains, light chain, not shown: another chain or arm of the molecule; small tags and cut ends) Fc: PPEMLGGPSIFIFPPKPKDTLSISRTPEVTCLVVDLGPDDSDVQITWFVDNTQVYTAKTSPREEQFNSTYRVVSVLPILHQDWLKGKEFKCKVNSKSLPSPIERTISKAKGQPHEPQVYVLPPAQEELSRNKVSVTCLIKSFHPPDIAVEWEITGQPEPENNYRTTPPQLDSDGTYFVYSKLSVDRSHWQRGNTYTCLVSHEALHYHHTQKSLTQSPGK"
–,–,–,2.1 nM,0.00568 s⁻¹,2.75e+06 M⁻¹ s⁻¹,–,–,–,"anti-NGF feline IgG1a, Fc variant S434Y, S254R (antibody, part only; not given: anti-NGF variable domains, light chain, not shown: another chain or arm of the molecule; small tags and cut ends) Fc: PPEMLGGPSIFIFPPKPKDTLSIRRTPEVTCLVVDLGPDDSDVQITWFVDNTQVYTAKTSPREEQFNSTYRVVSVLPILHQDWLKGKEFKCKVNSKSLPSPIERTISKAKGQPHEPQVYVLPPAQEELSRNKVSVTCLIKSFHPPDIAVEWEITGQPEPENNYRTTPPQLDSDGTYFVYSKLSVDRSHWQRGNTYTCSVSHEALHYHHTQKSLTQSPGK"
55.6 nM and 50.2 nM,0.0175 s⁻¹ and 0.0202 s⁻¹,314000 M⁻¹ s⁻¹ and 402000 M⁻¹ s⁻¹,–,–,–,–,–,–,"feline IgG1a Fc variant S434W (CH2-CH3) with SASA tag (Fc fusion, part only; not given: SASA tag, not shown: another chain or arm of the molecule; small tags and cut ends) Fc: PPEMLGGPSIFIFPPKPKDTLSISRTPEVTCLVVDLGPDDSDVQITWFVDNTQVYTAKTSPREEQFNSTYRVVSVLPILHQDWLKGKEFKCKVNSKSLPSPIERTISKAKGQPHEPQVYVLPPAQEELSRNKVSVTCLIKSFHPPDIAVEWEITGQPEPENNYRTTPPQLDSDGTYFVYSKLSVDRSHWQRGNTYTCSVSHEALHWHHTQKSLTQSPGK"
–,–,–,5.6 nM,0.00779 s⁻¹,1.39e+06 M⁻¹ s⁻¹,46.9 nM,0.112 s⁻¹,2.39e+06 M⁻¹ s⁻¹,"anti-NGF feline IgG1a, Fc variant S252Y, Q311K (antibody, part only; not given: anti-NGF variable domains, light chain, not shown: another chain or arm of the molecule; small tags and cut ends) Fc: PPEMLGGPSIFIFPPKPKDTLYISRTPEVTCLVVDLGPDDSDVQITWFVDNTQVYTAKTSPREEQFNSTYRVVSVLPILHKDWLKGKEFKCKVNSKSLPSPIERTISKAKGQPHEPQVYVLPPAQEELSRNKVSVTCLIKSFHPPDIAVEWEITGQPEPENNYRTTPPQLDSDGTYFVYSKLSVDRSHWQRGNTYTCSVSHEALHSHHTQKSLTQSPGK"
–,–,–,6.9 nM,0.00648 s⁻¹,939000 M⁻¹ s⁻¹,12.3 nM,0.113 s⁻¹,9.17e+06 M⁻¹ s⁻¹,"anti-NGF feline IgG1a, Fc variant T286E, S428R (antibody, part only; not given: anti-NGF variable domains, not shown: another chain or arm of the molecule; small tags and cut ends) Fc: PPEMLGGPSIFIFPPKPKDTLSISRTPEVTCLVVDLGPDDSDVQITWFVDNTQVYEAKTSPREEQFNSTYRVVSVLPILHQDWLKGKEFKCKVNSKSLPSPIERTISKAKGQPHEPQVYVLPPAQEELSRNKVSVTCLIKSFHPPDIAVEWEITGQPEPENNYRTTPPQLDSDGTYFVYSKLSVDRSHWQRGNTYTCSVRHEALHSHHTQKSLTQSPGK"
